Reference: the supplement of paper PMC9112550, “Optimization of the antimicrobial peptide Bac7 by deep mutational scanning” (BMC Biology, 2022)

tested on: Escherichia coli TOP10; experiment: shrunken log2 fold change of peptide-encoding DNA abundance (4.5 h post-induction vs induction); higher = less antimicrobial activity (less host growth inhibition); settings: time post-induction: 4.5 h; library: site-saturation at positions 5, 18, 19, 20
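Also: peptides expressed intracellularly from a pBAD plasmid library in pooled LB shake-flask culture, induced with 0.3% L-arabinose, DNA abundance read by NGS, three biological replicates, DESeq2 with apeglm shrinkage.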

| Sequence | shrunken log2 fold change |
| --- | --- |
| RRIRCRPPRLPRPRPRPQDDPRP | 0.0976 |
| RRIRRRPPRLPRPRPRPHHQPRP | -0.086 |
| RRIRCRPPRLPRPRPRPYCQPRP | -0.219 |
| RRIRLRPPRLPRPRPRPENQPRP | -0.0987 |
| RRIRIRPPRLPRPRPRPKDYPRP | -0.603 |
| RRIRWRPPRLPRPRPRPYFTPRP | -0.624 |
| RRIRKRPPRLPRPRPRPPCWPRP | 1.03 |
| RRIRHRPPRLPRPRPRPQDQPRP | 0.0969 |
| RRIRLRPPRLPRPRPRPEIGPRP | 0.0748 |
| RRIRERPPRLPRPRPRPAHNPRP | -0.0074 |
| RRIRGRPPRLPRPRPRPQARPRP | 0.3 |
| RRIRYRPPRLPRPRPRPKNQPRP | -0.777 |
| RRIRYRPPRLPRPRPRPSVMPRP | -0.194 |
| RRIRGRPPRLPRPRPRPNMDPRP | 0.265 |
| RRIRARPPRLPRPRPRPFGDPRP | 0.483 |
| RRIRFRPPRLPRPRPRPVFIPRP | -0.811 |
| RRIRTRPPRLPRPRPRPMMKPRP | -0.11 |
| RRIRNRPPRLPRPRPRPIRPPRP | -0.00213 |
| RRIRWRPPRLPRPRPRPFLKPRP | -0.4 |
| RRIRHRPPRLPRPRPRPNVTPRP | -0.0118 |
| RRIRARPPRLPRPRPRPLIMPRP | -0.144 |
| RRIRMRPPRLPRPRPRPAPSPRP | 1.28 |
| RRIRLRPPRLPRPRPRPMTRPRP | 0.314 |
| RRIRCRPPRLPRPRPRPGHRPRP | -0.0213 |
| RRIRSRPPRLPRPRPRPKVTPRP | -0.173 |

| Sequence | shrunken log2 fold change |
| --- | --- |
| RRIRERPPRLPRPRPRPQQYPRP | -0.318 |
| RRIRCRPPRLPRPRPRPSACPRP | -0.0897 |
| RRIRRRPPRLPRPRPRPIKVPRP | -0.186 |
| RRIRFRPPRLPRPRPRPFKAPRP | -0.11 |
| RRIRSRPPRLPRPRPRPVADPRP | 0.0874 |
| RRIRNRPPRLPRPRPRPYDCPRP | -0.109 |
| RRIRQRPPRLPRPRPRPWLYPRP | -0.0636 |
| RRIRERPPRLPRPRPRPANVPRP | -0.0342 |
| RRIRDRPPRLPRPRPRPDLGPRP | 0.829 |
| RRIRLRPPRLPRPRPRPCIRPRP | -0.265 |
| RRIRRRPPRLPRPRPRPHIFPRP | -0.019 |
| RRIRVRPPRLPRPRPRPPKQPRP | 0.0106 |
| RRIRVRPPRLPRPRPRPGRGPRP | 0.632 |
| RRIRCRPPRLPRPRPRPPDYPRP | 0.0368 |
| RRIRMRPPRLPRPRPRPPVEPRP | 0.664 |
| RRIRVRPPRLPRPRPRPMNLPRP | -0.0749 |
| RRIRSRPPRLPRPRPRPRGFPRP | 0.82 |
| RRIRSRPPRLPRPRPRPRKMPRP | 0.207 |
| RRIRRRPPRLPRPRPRPYHAPRP | -0.0669 |
| RRIRYRPPRLPRPRPRPGMTPRP | 0.0238 |
| RRIRYRPPRLPRPRPRPVLYPRP | -0.0955 |
| RRIRCRPPRLPRPRPRPVTRPRP | 0.197 |
| RRIRTRPPRLPRPRPRPRHGPRP | 0.745 |
| RRIRARPPRLPRPRPRPGIHPRP | 0.37 |
| RRIRRRPPRLPRPRPRPATYPRP | -0.0435 |

| Sequence | shrunken log2 fold change |
| --- | --- |
| RRIRWRPPRLPRPRPRPTMVPRP | -0.299 |
| RRIRPRPPRLPRPRPRPSRAPRP | 0.11 |
| RRIRRRPPRLPRPRPRPYHMPRP | -0.254 |
| RRIRNRPPRLPRPRPRPGQHPRP | 0.128 |
| RRIRKRPPRLPRPRPRPNDPPRP | -0.0515 |
| RRIRRRPPRLPRPRPRPQQEPRP | -0.0236 |
| RRIRTRPPRLPRPRPRPESWPRP | 0.809 |
| RRIRHRPPRLPRPRPRPNTKPRP | -0.0741 |
| RRIRWRPPRLPRPRPRPLLYPRP | 0.0998 |
| RRIRSRPPRLPRPRPRPLNAPRP | 0.213 |
| RRIRWRPPRLPRPRPRPWFNPRP | -0.248 |
| RRIRYRPPRLPRPRPRPEMPPRP | -0.0307 |
| RRIRVRPPRLPRPRPRPMHGPRP | 0.00623 |
| RRIRLRPPRLPRPRPRPVPCPRP | -0.239 |
| RRIRKRPPRLPRPRPRPHCVPRP | -0.0287 |
| RRIRTRPPRLPRPRPRPFCAPRP | -0.00433 |
| RRIRKRPPRLPRPRPRPKWFPRP | -0.039 |
| RRIRHRPPRLPRPRPRPTRAPRP | 0.348 |
| RRIRGRPPRLPRPRPRPGFWPRP | 0.581 |
| RRIRARPPRLPRPRPRPEDGPRP | 1.48 |
| RRIRKRPPRLPRPRPRPDIRPRP | 0.0731 |
| RRIRGRPPRLPRPRPRPVSFPRP | 0.392 |
| RRIRNRPPRLPRPRPRPHPKPRP | 0.187 |
| RRIRRRPPRLPRPRPRPFSYPRP | 0.016 |
| RRIRSRPPRLPRPRPRPSWNPRP | -0.342 |

| Sequence | shrunken log2 fold change |
| --- | --- |
| RRIRNRPPRLPRPRPRPMPKPRP | -0.0238 |
| RRIRHRPPRLPRPRPRPWHPPRP | -0.801 |
| RRIRARPPRLPRPRPRPEGLPRP | 0.527 |
| RRIRGRPPRLPRPRPRPDYAPRP | -0.0775 |
| RRIRCRPPRLPRPRPRPPDHPRP | 0.279 |
| RRIRWRPPRLPRPRPRPYPWPRP | -0.156 |
| RRIRRRPPRLPRPRPRPDKEPRP | 0.0257 |
| RRIRRRPPRLPRPRPRPPNQPRP | 0.337 |
| RRIRTRPPRLPRPRPRPANPPRP | 0.0504 |
| RRIRKRPPRLPRPRPRPKRDPRP | 0.539 |
| RRIRSRPPRLPRPRPRPGATPRP | 0.584 |
| RRIRMRPPRLPRPRPRPEERPRP | 2.6 |
| RRIRWRPPRLPRPRPRPHFPPRP | 0.064 |
| RRIRNRPPRLPRPRPRPMGWPRP | -0.00822 |
| RRIRRRPPRLPRPRPRPFEAPRP | 1.04 |
| RRIRLRPPRLPRPRPRPSSAPRP | -0.0182 |
| RRIRCRPPRLPRPRPRPFKCPRP | -0.232 |
| RRIRNRPPRLPRPRPRPWSPPRP | -0.245 |
| RRIRHRPPRLPRPRPRPSIRPRP | -0.345 |
| RRIRGRPPRLPRPRPRPFSNPRP | 0.064 |
| RRIRHRPPRLPRPRPRPPMMPRP | 0.03 |
| RRIRARPPRLPRPRPRPDQDPRP | 0.605 |
| RRIRLRPPRLPRPRPRPWPVPRP | 0.191 |
| RRIRQRPPRLPRPRPRPGIAPRP | 0.719 |
| RRIRIRPPRLPRPRPRPPEVPRP | -0.173 |

| Sequence | shrunken log2 fold change |
| --- | --- |
| RRIRNRPPRLPRPRPRPENNPRP | -0.106 |
| RRIRKRPPRLPRPRPRPHHPPRP | -0.123 |
| RRIRVRPPRLPRPRPRPKGGPRP | 0.0495 |
| RRIRSRPPRLPRPRPRPIRHPRP | -0.0283 |
| RRIRLRPPRLPRPRPRPEMWPRP | 0.204 |
| RRIRLRPPRLPRPRPRPICDPRP | 0.0695 |
| RRIRIRPPRLPRPRPRPHCRPRP | -0.341 |
| RRIRIRPPRLPRPRPRPHMNPRP | -0.845 |
| RRIRQRPPRLPRPRPRPPNQPRP | 0.448 |
| RRIRKRPPRLPRPRPRPNFAPRP | 0.155 |
| RRIRWRPPRLPRPRPRPGFPPRP | -0.0683 |
| RRIRSRPPRLPRPRPRPFCQPRP | -0.0847 |
| RRIRGRPPRLPRPRPRPGFMPRP | 0.488 |
| RRIRIRPPRLPRPRPRPRMCPRP | 0.242 |
| RRIRWRPPRLPRPRPRPFITPRP | -0.167 |
| RRIRPRPPRLPRPRPRPVGAPRP | 0.561 |
| RRIRSRPPRLPRPRPRPTRAPRP | 0.738 |
| RRIRRRPPRLPRPRPRPASMPRP | 0.0911 |
| RRIRSRPPRLPRPRPRPNTSPRP | -0.242 |
| RRIRPRPPRLPRPRPRPCLHPRP | -0.248 |
| RRIRERPPRLPRPRPRPHHFPRP | -0.0117 |
| RRIRLRPPRLPRPRPRPGNRPRP | -1.09 |
| RRIRHRPPRLPRPRPRPCDIPRP | -0.0274 |
| RRIRRRPPRLPRPRPRPKNCPRP | 0.0654 |
| RRIRNRPPRLPRPRPRPNQWPRP | -0.171 |

| Sequence | shrunken log2 fold change |
| --- | --- |
| RRIRARPPRLPRPRPRPAPRPRP | 1.02 |
| RRIRYRPPRLPRPRPRPVGPPRP | -0.328 |
| RRIRNRPPRLPRPRPRPVSSPRP | -0.00623 |
| RRIRARPPRLPRPRPRPVFCPRP | 0.487 |
| RRIRARPPRLPRPRPRPQDFPRP | -0.0122 |
| RRIRLRPPRLPRPRPRPLFFPRP | 0.417 |
| RRIRWRPPRLPRPRPRPNFVPRP | 0.292 |
| RRIRQRPPRLPRPRPRPCQGPRP | -0.0332 |
| RRIRMRPPRLPRPRPRPLNAPRP | 0.35 |
| RRIRTRPPRLPRPRPRPATPPRP | 0.499 |
| RRIRHRPPRLPRPRPRPQPTPRP | -0.18 |
| RRIRRRPPRLPRPRPRPYMAPRP | -0.69 |
| RRIRMRPPRLPRPRPRPGTKPRP | 0.844 |
| RRIRQRPPRLPRPRPRPETGPRP | 0.0496 |
| RRIRIRPPRLPRPRPRPVQGPRP | 0.552 |
| RRIRKRPPRLPRPRPRPQSVPRP | 0.139 |
| RRIRIRPPRLPRPRPRPMSQPRP | -0.119 |
| RRIRLRPPRLPRPRPRPQLNPRP | -0.214 |
| RRIRYRPPRLPRPRPRPLFHPRP | -0.818 |
| RRIRQRPPRLPRPRPRPSVIPRP | -0.656 |
| RRIRLRPPRLPRPRPRPAVQPRP | -0.249 |
| RRIRYRPPRLPRPRPRPHPEPRP | 0.037 |
| RRIRYRPPRLPRPRPRPNFNPRP | -0.818 |
| RRIRRRPPRLPRPRPRPYFCPRP | -0.285 |
| RRIRIRPPRLPRPRPRPMVPPRP | 0.0231 |
